US20180037649A1 (OSAKA UNIVERSITY, published 2018)
Values belong to the binder of their own block, whether it stands above or below them.

Columns and labels:
[1] = molecular target: T1, deletion mutant CKAP4-HA ΔLZ (human, UniProt Q07065 1-602); assay: co-IP with anti-FLAG antibody from X293T/Dkk1-FLAG cell lysate, immunoblot with anti-HA antibody
T1 construct: not shown: HA tag
T1 sequence: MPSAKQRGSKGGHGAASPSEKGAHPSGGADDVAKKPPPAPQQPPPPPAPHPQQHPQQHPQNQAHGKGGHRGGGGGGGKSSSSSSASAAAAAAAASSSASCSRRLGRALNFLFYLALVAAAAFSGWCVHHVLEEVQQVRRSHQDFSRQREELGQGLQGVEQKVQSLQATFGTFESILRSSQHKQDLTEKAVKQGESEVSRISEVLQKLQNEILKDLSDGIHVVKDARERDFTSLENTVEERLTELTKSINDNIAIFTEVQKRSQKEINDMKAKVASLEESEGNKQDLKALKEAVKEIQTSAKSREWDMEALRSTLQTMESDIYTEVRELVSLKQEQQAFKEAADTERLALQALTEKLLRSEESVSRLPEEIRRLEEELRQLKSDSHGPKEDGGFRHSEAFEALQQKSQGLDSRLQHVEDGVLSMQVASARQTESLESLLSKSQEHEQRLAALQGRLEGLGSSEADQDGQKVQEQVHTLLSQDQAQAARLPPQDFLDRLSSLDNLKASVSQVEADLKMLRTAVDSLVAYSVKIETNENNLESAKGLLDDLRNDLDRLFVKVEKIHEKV
Source text: A lysate (Input) of X293T/Dkk1-FLAG cells in which wild-type CKAP4-HA (WT) or a deletion mutant CKAP4-HA (ΔLZ) was transiently expressed was immunoprecipitated with an anti-FLAG antibody, and then the cell lysate (Input) and the immunoprecipitates (IP) were subjected to the detection of HA and Dkk1 using an anti-HA antibody and an anti-Dkk1 antibody, respectively. The results are shown in the lower right panel in FIG. 2 (e). […] Namely, it was confirmed that a CRD-1 domain located on the N-terminal side of Dkk1 and a leucine zipper domain of CKAP4 were necessary for the binding between Dkk1 and CKAP4.

[2] = molecular target: p85α of S2-CP8 cells (endogenous) (human, UniProt P27986 2-724); assay: co-IP with anti-CKAP4 antibody from S2-CP8 cell lysate (control shRNA or Dkk1 shRNA), immunoblot
Sequence of p85α of S2-CP8 cells (endogenous) (P27986 2-724): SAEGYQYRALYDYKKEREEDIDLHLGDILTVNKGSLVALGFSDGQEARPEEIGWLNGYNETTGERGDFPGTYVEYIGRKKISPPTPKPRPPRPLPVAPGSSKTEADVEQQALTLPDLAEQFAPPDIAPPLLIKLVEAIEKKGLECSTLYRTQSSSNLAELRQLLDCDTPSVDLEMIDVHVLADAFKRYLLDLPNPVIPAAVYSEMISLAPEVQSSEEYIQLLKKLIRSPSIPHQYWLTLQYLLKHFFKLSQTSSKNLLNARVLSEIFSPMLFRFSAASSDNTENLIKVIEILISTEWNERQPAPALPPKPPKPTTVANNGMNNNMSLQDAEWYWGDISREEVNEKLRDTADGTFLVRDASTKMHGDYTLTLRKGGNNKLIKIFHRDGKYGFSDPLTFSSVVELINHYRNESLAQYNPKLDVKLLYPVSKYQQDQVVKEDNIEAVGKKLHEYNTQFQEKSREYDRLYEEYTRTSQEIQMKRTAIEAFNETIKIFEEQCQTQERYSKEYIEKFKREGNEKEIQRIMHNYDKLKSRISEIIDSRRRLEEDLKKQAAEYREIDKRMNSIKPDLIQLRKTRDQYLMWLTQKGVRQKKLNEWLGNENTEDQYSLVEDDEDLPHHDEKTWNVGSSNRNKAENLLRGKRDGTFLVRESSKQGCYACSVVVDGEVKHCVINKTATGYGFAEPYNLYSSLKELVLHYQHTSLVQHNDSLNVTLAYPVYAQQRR
Procedure: A lysate (Input) of S2-CP8 cells in which control shRNA or Dkk1 shRNA (Dkk1) was stably expressed was prepared. The lysate was immunoprecipitated with an anti-CKAP4 antibody. Subsequently, the cell lysate (Input) and the immunoprecipitates (IP) were subjected to the detection of p85α, p110β, CKAP4 and Dkk1 using an anti-p85α antibody, an anti-p110β antibody, an anti-CKAP4 antibody and an anti-Dkk1 antibody, respectively.

binding result [1]: no binding
B1: Dkk1-FLAG (wild-type human Dkk1 tagged with FLAG at the C-terminal) (ligand, UniProt O94907 32-266, looked up)
chain: TLNSVLNSNAIKNLPPPLGGAAGHPGSAVSAAPGILYPGGNKYQTIDNYQPYPCAEDEECGTDEYCASPTRGGDAGVQICLACRKRRKRCMRHAMCCPGNYCKNGICVSSDQNHFRGEIEETITESFGNDHSTLDGYSRRTTLSSKMYHTKGQEGSVCLRSSDCASGLCCARHFWSKICKPVLKEGQVCTKHRRKGSHGLEIFQRCYCGEGLSCRIQKDHHQASNSSRLHTCQRH
notes: Expressed in MDCK or X293T cells; pulled down from cell lysates with an anti-FLAG antibody; also called WT-FLAG; wild-type Dkk1-FLAG (WT); not shown: FLAG tag at the C-terminal

binding result [2]: binds
B2: CKAP4 of S2-CP8 cells (endogenous) (receptor)
chain: MPSAKQRGSKGGHGAASPSEKGAHPSGGADDVAKKPPPAPQQPPPPPAPHPQQHPQQHPQNQAHGKGGHRGGGGGGGKSSSSSSASAAAAAAAASSSASCSRRLGRALNFLFYLALVAAAAFSGWCVHHVLEEVQQVRRSHQDFSRQREELGQGLQGVEQKVQSLQATFGTFESILRSSQHKQDLTEKAVKQGESEVSRISEVLQKLQNEILKDLSDGIHVVKDARERDFTSLENTVEERLTELTKSINDNIAIFTEVQKRSQKEINDMKAKVASLEESEGNKQDLKALKEAVKEIQTSAKSREWDMEALRSTLQTMESDIYTEVRELVSLKQEQQAFKEAADTERLALQALTEKLLRSEESVSRLPEEIRRLEEELRQLKSDSHGPKEDGGFRHSEAFEALQQKSQGLDSRLQHVEDGVLSMQVASARQTESLESLLSKSQEHEQRLAALQGRLEGLGSSEADQDGLASTVRSLGETQLVLYGDVEELKRSVGELPSTVESLQKVQEQVHTLLSQDQAQAARLPPQDFLDRLSSLDNLKASVSQVEADLKMLRTAVDSLVAYSVKIETNENNLESAKGLLDDLRNDLDRLFVKVEKIHEKV
notes: Used in lysates (IP, immunoblot) and on unfixed cells (staining)
